According to patent publication US20230212554A1 (published 2023):

Molecular target: NPA3 (influenza A virus A/Aalborg/INS132/2009 …, UniProt P68042 1-489)
Assay: ELISA on recombinant NP

Binder | EC50 [nM]
NP8 (antibody, V domains shown) VH: EVQLVESGGGLVQPGGSLRLSCAASGFTINSFGIHWVRQAPGKGLEWVAGIGPFGGSTFYADSVKGRFTISADTSKNTAYLQMNSLRAEDTAVYYCARGFYWFDYWGQGTLVTVSS VL: DIQMTQSPSSLSASVGDRVTITCRASQDVDDSVAWYQQKPGKAPKLLIYWTRYLYSGVPSRFSGSGSGTDFTLTISSLQPEDFATYYCQQGYNYPLTFGQGTKVEIKR | 0.07
NP14 (antibody, V domains shown) VH: EVQLVESGGGLVQPGGSLRLSCAASGFTIDNGGIHWVRQAPGKGLEWVASIWPSWGSTSYADSVKGRFTISADTSKNTAYLQMNSLRAEDTAVYYCARFNFGVFGVMDYWGQGTLVTVSS VL: DIQMTQSPSSLSASVGDRVTITCRASQDVDNDVAWYQQKPGKAPKLLIYGPRGLYSGVPSRFSGSGSGTDFTLTISSLQPEDFATYYCQQYSSWPLTFGQGTKVEIKR | 19.7
NP9 (antibody, V domains shown) VH: EVQLVESGGGLVQPGGSLRLSCAASGFTINNGWIHWVRQAPGKGLEWVAGIGPYWGFTSYADSVKGRFMISADTSKNTAYLQMNSLRAEDTAVYYCARFDSDHDHHYSYYYYYDNGYMDYWGQGTLVTVSS VL: DIQMTQSPSSLSASVGDRVTITCRASQDVWFSVAWYQQKPGKAPKLLIYGTTSLYSGVPSRFSGSGSGTDFTLTISSLQPEDFATYYCQQYFNYPLTFGQGTKVEIKR | 4.38
NP13 (antibody, V domains shown) VH: EVQLVESGGGLVQPGGSLRLSCAASGFTINNYGIHWVRQAPGKGLEWVASIGPYGGSTYYADSVKGRFTISADTSKNTAYLQMNSLRAEDTAVYYCARFGYFNWLDMDYWGQGTLVTVSS VL: DIQMTQSPSSLSASVGDRVTITCRASQDVGYWVAWYQQKPGKAPKLLISSASGLYSGVPSRFSGSGSGTDFTLTISSLQPEDFATYYCQQGWDWPITFGQGTKVEIKR | 9.36
NP4 (antibody, V domains shown) VH: EVQLVESGGGLVQPGGSLRLSCAASGFTISNSSIHWVRQAPGKGLEWVAGIGPSGGYTFYADSVKGRFTISADTSKNTAYLQMNSLRAEDTAVYYCARFHSHNSYYSYSHYGYMDYWGQGTLVTVSS VL: DIQMTQSPSSLSASVGDRVTITCRASQDVGWGVAWYQQKPGKAPKLLISGPSSLYSGVPSRFSGSGSGTDFTLTISSLQPEDFATYYCQQYFNYPITFGQGTKVEIKR | 10.1
